Experimental data: patent US20250230246A1 (SAMYANG BIOPHARM USA, published 2025)
One block for each binder: values may come before it.

What was measured:
MICB*005 = MICB*005 (human); assay: kinetic binding assay (ka, kd, Rmax in RU; method not named)
MICA*008 = MICA*008 (human); assay: as above
Human CD64 (FcγRI) [1] = biological target: T1, Human CD64 (FcγRI) (human, UniProt P12314 16-288, limits assumed); assay: as above
Human CD32a (FcγRIIA) [2] = biological target: T2, Human CD32a (FcγRIIA) (human, UniProt P12318 34-217, limits assumed); assay: as above
T2 sequence (looked up): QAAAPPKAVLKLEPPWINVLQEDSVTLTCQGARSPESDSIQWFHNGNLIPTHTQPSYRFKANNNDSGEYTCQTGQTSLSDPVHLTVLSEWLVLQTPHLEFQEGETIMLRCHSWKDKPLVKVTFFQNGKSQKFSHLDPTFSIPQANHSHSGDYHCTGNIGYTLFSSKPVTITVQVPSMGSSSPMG

Human CD64 (FcγRI) [3] = biological target: T1, Human CD64 (FcγRI); assay: kinetic binding assay (Table 2); ND = not detectable
Human CD32a (FcγRIIA) [4] = biological target: T2, Human CD32a (FcγRIIA); assay: as above

T1 sequence (P12314 16-288 limits assumed): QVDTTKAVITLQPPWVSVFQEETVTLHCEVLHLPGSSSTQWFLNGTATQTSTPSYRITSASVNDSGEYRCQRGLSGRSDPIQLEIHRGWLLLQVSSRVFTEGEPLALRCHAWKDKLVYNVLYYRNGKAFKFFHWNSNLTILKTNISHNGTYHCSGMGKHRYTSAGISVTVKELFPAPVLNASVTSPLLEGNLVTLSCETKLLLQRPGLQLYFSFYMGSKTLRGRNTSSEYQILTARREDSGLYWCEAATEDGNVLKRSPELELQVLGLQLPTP

- Kd (MICB*005): 21 nM
- koff (MICB*005): 0.0394 s⁻¹
- kon (MICB*005): 1.88e+06 M⁻¹ s⁻¹
- Kd (MICA*008): 0.98 nM
- koff (MICA*008): 0.000627 s⁻¹
- kon (MICA*008): 639000 M⁻¹ s⁻¹
- Kd (Human CD64 (FcγRI) [1]): 1.61 nM
- koff (Human CD64 (FcγRI) [1]): 0.00133 s⁻¹
- kon (Human CD64 (FcγRI) [1]): 825000 M⁻¹ s⁻¹
- Kd (Human CD32a (FcγRIIA) [2]): 1540 nM
- koff (Human CD32a (FcγRIIA) [2]): 0.772 s⁻¹
- kon (Human CD32a (FcγRIIA) [2]): 500000 M⁻¹ s⁻¹
B1: SYB-010 (antibody, human IgG1, kappa)
heavy: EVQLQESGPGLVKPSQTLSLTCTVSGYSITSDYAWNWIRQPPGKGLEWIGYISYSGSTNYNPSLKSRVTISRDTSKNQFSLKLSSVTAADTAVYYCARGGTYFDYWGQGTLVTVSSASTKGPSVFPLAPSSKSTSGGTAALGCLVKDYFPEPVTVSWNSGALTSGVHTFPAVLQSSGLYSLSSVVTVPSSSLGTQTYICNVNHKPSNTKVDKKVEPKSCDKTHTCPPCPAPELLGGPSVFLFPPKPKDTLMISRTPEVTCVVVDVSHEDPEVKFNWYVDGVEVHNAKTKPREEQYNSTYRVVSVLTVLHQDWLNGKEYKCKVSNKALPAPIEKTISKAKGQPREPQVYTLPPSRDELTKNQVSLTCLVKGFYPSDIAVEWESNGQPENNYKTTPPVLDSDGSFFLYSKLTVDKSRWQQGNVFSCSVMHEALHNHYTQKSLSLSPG
light: DVVMTQSPSTLSASVGDRVTITCRASAHINNWLAWYQQKPGKAPKLLISDATSLESGVPSRFSGSGSGKEYTLTISSLQPDDFATYYCQHYWSTPWTFGQGTKVEIKRTVAAPSVFIFPPSDEQLKSGTASVVCLLNNFYPREAKVQWKVDNALQSGNSQESVTEQDSKDSTYSLSSTLTLSKADYEKHKVYACEVTHQGLSSPVTKSFNRGEC
notes: also called SYB-010 Fc wildtype

- Kd (MICB*005): 19.8 nM
- koff (MICB*005): 0.0939 s⁻¹
- kon (MICB*005): 4.74e+06 M⁻¹ s⁻¹
- Kd (MICA*008): 1.04 nM
- koff (MICA*008): 0.000617 s⁻¹
- kon (MICA*008): 596000 M⁻¹ s⁻¹
- binding result (Human CD64 (FcγRI) [3]): no binding
- binding result (Human CD32a (FcγRIIA) [4]): no binding
B2: SYB-011 (antibody, human IgG1, kappa, L234A L235A)
heavy: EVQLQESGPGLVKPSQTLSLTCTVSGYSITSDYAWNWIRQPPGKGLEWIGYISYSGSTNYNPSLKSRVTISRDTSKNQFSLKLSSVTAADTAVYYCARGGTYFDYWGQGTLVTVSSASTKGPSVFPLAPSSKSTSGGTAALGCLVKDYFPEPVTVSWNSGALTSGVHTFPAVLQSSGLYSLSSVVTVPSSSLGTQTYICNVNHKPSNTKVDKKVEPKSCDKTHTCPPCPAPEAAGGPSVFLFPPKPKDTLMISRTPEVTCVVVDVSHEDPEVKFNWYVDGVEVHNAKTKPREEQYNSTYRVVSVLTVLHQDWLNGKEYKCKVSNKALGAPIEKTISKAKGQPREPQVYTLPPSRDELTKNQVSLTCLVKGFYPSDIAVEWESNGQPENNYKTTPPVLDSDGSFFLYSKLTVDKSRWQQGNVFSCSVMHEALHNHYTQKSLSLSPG
light: B1 light
notes: Positions are EU index numbers; also called SYB-011 Fc mutant; effectorless anti-MIC antibody
